In article PMC4097036 (Molecular immunology, 2014):

Assays:
[1] = biological target: rBla g 1-EC (combined with the scFv for crystallography) (Blattella germanica, UniProt Q9UAM5); assay: SEC
[2] = biological target: anti-Bla g 1 scFv (chicken); assay: crystal structure
[3] = biological target: rBla g 1-EC H113A, with GST tag (Blattella germanica, UniProt Q9UAM5, point mutant); assay: ELISA
[4] = biological target: rBla g 1-EC E161A, with GST tag (Blattella germanica, Bla g 1.0101, UniProt Q9UAM5, point mutant); assay: ELISA
[5] = biological target: rBla g 1-EC D76A, with GST tag (Blattella germanica, UniProt Q9UAM5, point mutant); assay: ELISA
[6] = biological target: rBla g 1-EC N93A, with GST tag (Blattella germanica, UniProt Q9UAM5, point mutant); assay: ELISA
[7] = biological target: rBla g 1-EC D50A, with GST tag (Blattella germanica, UniProt Q9UAM5, point mutant); assay: ELISA
[8] = biological target: rBla g 1-EC T80A, with GST tag (Blattella germanica, UniProt Q9UAM5, point mutant); assay: ELISA
[9] = biological target: rBla g 1-EC V83A, with GST tag (Blattella germanica, UniProt Q9UAM5, point mutant); assay: ELISA
[10] = biological target: rBla g 1-EC E79A, with GST tag (Blattella germanica, UniProt Q9UAM5, point mutant); assay: ELISA
[11] = biological target: rBla g 1-EC L60A, with GST tag (Blattella germanica, UniProt Q9UAM5, point mutant); assay: ELISA
[12] = biological target: rBla g 1-EC D107A, with GST tag (Blattella germanica, UniProt Q9UAM5, point mutant); assay: ELISA
[13] = biological target: rBla g 1-EC N104A, with GST tag (Blattella germanica, UniProt Q9UAM5, point mutant); assay: ELISA
[14] = biological target: rBla g 1-EC E200A, with GST tag (Blattella germanica, UniProt Q9UAM5, point mutant); assay: ELISA
[15] = biological target: rBla g 1-EC Q183A, with GST tag (Blattella germanica, Bla g 1.0101, UniProt Q9UAM5, point mutant); assay: ELISA
[16] = biological target: rBla g 1-EC N193A, with GST tag (Blattella germanica, Bla g 1.0101, UniProt Q9UAM5, point mutant); assay: ELISA
[17] = biological target: rBla g 1-EC Q41A, with GST tag (Blattella germanica, UniProt Q9UAM5, point mutant); assay: ELISA
[18] = biological target: rBla g 1-EC N96A, with GST tag (Blattella germanica, UniProt Q9UAM5, point mutant); assay: ELISA
[19] = biological target: rBla g 1-EC I53A, with GST tag (Blattella germanica, UniProt Q9UAM5, point mutant); assay: ELISA

B1: anti-Bla g 1 scFv (scFv, V domains shown)
VH: AVTLDESGGGLQTPGGALSLVCKASGFTFSVYDMMWVRQAPSKGLEWVAGIGITGSTYYASAVKGRATISRDNGQSTVRLQLNNLRAEDTGTYYCARGGAYSINKLDTWGQGTEVIVSS
VL: QAALTQPSSVSANPGETVKITCSGGGSSSNYGWFQQKSPGSAPVTVIYNNNNRPSDIPSRFSGSKSGSTATLTITGVQADDEAVYFCGGRDSTYAGMFGAGTTLTVL
stoichiometry N [1]: 1 Bla g 1 per scFv (printed as 2:2) | stoichiometry N [2]: 2 | ΔΔG against wild type (RT ln(IC50 WT/IC50 mutant)) [3]: 0.09 kCal/mol | ΔΔG against wild type (RT ln(IC50 WT/IC50 mutant)) [4]: 0.33 kCal/mol | ΔΔG against wild type (RT ln(IC50 WT/IC50 mutant)) [5]: -1.1 kCal/mol | ΔΔG against wild type (RT ln(IC50 WT/IC50 mutant)) [6]: 0.31 kCal/mol | ΔΔG against wild type (RT ln(IC50 WT/IC50 mutant)) [7]: 0.06 kCal/mol | ΔΔG against wild type (RT ln(IC50 WT/IC50 mutant)) [8]: -1.7 kCal/mol | ΔΔG against wild type (RT ln(IC50 WT/IC50 mutant)) [9]: -0.33 kCal/mol | ΔΔG against wild type (RT ln(IC50 WT/IC50 mutant)) [10]: -1.2 kCal/mol | ΔΔG against wild type (RT ln(IC50 WT/IC50 mutant)) [11]: 0 kCal/mol | ΔΔG against wild type (RT ln(IC50 WT/IC50 mutant)) [12]: 0.13 kCal/mol | ΔΔG against wild type (RT ln(IC50 WT/IC50 mutant)) [13]: 0.4 kCal/mol | ΔΔG against wild type (RT ln(IC50 WT/IC50 mutant)) [14]: -0.02 kCal/mol | ΔΔG against wild type (RT ln(IC50 WT/IC50 mutant)) [15]: 0.33 kCal/mol | ΔΔG against wild type (RT ln(IC50 WT/IC50 mutant)) [16]: -2.1 kCal/mol | ΔΔG against wild type (RT ln(IC50 WT/IC50 mutant)) [17]: -0.05 kCal/mol | ΔΔG against wild type (RT ln(IC50 WT/IC50 mutant)) [18]: 0.33 kCal/mol | ΔΔG against wild type (RT ln(IC50 WT/IC50 mutant)) [19]: 0.09 kCal/mol
